Measured values as given in PMC11626796.

Experiments:
[1] = biological target: Versican treated with chondroitinase ABC (core protein) (bovine) (UniProt P81282); assay: ELISA; solid-phase binding assay: proteoglycan or versican domain coated on a 96-well plate (0.25 ug/ml; 0.05-1 ug/ml in Fig. 2A) at 4 C overnight, blocked with 3% BSA in TTBS or casein; rat tail type I collagen 0.1-5 ug/ml in 1% BSA/PBS overnight at RT; detected with biotin-conjugated anti-collagen I antibody, streptavidin-HRP and TMB; Kd from Scatchard plot
[2] = biological target: Native versican isolated from bovine liver (bovine) (UniProt P81282); assay: as above

Rat tail type I telo-collagen, P02454 152-1207; P02466 86-1125 (complex; GAG side chains removed with chondroitinase ABC), sequence (P02454 152-1207): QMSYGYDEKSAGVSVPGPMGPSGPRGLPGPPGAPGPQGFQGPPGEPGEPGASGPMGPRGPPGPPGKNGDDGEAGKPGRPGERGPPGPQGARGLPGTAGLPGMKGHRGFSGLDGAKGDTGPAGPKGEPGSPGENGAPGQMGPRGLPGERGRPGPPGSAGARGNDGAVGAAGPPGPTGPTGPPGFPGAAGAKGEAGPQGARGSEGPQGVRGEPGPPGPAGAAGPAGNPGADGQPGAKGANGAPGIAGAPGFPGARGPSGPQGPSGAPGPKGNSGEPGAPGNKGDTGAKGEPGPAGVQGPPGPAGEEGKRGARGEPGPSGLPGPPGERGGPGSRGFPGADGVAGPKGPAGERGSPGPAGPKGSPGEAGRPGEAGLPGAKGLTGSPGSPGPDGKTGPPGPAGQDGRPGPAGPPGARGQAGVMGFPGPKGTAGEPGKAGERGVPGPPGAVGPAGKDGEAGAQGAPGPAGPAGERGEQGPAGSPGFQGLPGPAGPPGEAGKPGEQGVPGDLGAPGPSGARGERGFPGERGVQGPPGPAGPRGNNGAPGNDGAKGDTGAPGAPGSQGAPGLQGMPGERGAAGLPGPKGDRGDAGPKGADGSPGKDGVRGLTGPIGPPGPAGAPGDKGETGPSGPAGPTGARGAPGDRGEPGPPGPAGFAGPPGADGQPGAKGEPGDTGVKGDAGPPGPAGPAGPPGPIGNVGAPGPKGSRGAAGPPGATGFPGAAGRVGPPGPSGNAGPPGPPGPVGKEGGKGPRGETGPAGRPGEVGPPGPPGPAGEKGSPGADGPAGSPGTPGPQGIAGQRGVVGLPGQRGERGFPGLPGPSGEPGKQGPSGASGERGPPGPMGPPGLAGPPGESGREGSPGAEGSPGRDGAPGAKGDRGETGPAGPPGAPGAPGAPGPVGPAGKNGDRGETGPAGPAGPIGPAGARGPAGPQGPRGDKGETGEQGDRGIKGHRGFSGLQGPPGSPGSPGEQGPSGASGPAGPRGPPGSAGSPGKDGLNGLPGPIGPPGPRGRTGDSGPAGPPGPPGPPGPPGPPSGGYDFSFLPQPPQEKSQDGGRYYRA
Rat tail type I telo-collagen, P02454 152-1207; P02466 86-1125 (complex; GAG side chains removed with chondroitinase ABC), sequence (P02466 86-1125): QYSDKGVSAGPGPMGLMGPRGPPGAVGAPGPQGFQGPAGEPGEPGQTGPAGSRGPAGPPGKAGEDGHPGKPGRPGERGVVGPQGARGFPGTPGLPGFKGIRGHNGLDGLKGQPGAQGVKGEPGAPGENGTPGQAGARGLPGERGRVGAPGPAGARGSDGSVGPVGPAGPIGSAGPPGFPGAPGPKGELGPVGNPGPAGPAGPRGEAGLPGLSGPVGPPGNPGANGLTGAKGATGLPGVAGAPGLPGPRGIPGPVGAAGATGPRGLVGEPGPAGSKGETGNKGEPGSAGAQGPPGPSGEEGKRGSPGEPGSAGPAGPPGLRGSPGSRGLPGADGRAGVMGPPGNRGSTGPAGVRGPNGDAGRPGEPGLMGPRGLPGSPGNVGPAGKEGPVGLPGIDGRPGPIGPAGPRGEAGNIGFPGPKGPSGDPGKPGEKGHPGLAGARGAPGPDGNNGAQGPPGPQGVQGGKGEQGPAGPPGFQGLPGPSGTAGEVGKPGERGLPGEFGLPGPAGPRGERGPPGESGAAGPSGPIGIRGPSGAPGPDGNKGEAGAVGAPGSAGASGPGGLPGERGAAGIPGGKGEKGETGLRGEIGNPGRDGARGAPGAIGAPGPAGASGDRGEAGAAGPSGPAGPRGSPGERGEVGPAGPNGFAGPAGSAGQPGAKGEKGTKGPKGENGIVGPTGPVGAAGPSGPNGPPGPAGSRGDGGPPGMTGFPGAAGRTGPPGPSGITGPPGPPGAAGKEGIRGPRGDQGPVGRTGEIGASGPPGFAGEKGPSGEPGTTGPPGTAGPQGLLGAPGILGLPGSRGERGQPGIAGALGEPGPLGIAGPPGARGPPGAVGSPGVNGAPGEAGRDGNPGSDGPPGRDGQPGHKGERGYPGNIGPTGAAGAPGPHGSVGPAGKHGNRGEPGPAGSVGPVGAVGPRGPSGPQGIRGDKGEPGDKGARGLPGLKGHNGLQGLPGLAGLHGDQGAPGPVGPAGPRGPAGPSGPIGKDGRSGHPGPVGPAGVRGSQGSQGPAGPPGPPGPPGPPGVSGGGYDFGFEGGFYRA
Rat tail type I telo-collagen, P02454 152-1207; P02466 86-1125 (complex; chondroitin sulfate GAG side chains), sequence (P02454 152-1207): as the sequence (P02454 152-1207) above
Rat tail type I telo-collagen, P02454 152-1207; P02466 86-1125 (complex; chondroitin sulfate GAG side chains), sequence (P02466 86-1125): as the sequence (P02466 86-1125) above

| Kd [1] | Kd [2] | Substance |
| --- | --- | --- |
| 2.2 nM |  | Rat tail type I telo-collagen, P02454 152-1207; P02466 86-1125 (complex; GAG side chains removed with chondroitinase ABC) |
|  | 1.3 nM | Rat tail type I telo-collagen, P02454 152-1207; P02466 86-1125 (complex; chondroitin sulfate GAG side chains) |
